According to the Immune Epitope Database (IEDB):

Tests used:
HLA-B*15:01 [1] = experiment: IEDB peptide-MHC binding, purified MHC/direct/fluorescence; filed as Kd, often an IC50 or EC50 that approximates it; ≥ and ≤ were set here for values at or beyond the usual limits of such assays
HLA-A*26:01 [2] = experiment: as above
HLA-B*46:01 [3] = experiment: as above
HLA-A*31:01 = experiment: as above; settings: source organism: Camelpox virus M-96
HLA-B*15:17 = experiment: as above
HLA-A*03:01 [4] = experiment: as above
HLA-B*40:01 = experiment: as above; settings: source organism: Camelpox virus M-96
HLA-B*27:05 = experiment: as above; settings: source organism: Camelpox virus M-96
HLA-A*02:01 [5] = experiment: as above
HLA-B*48:01 = experiment: as above; settings: source organism: Camelpox virus M-96
HLA-B*57:01 = experiment: as above
HLA-B*58:01 = experiment: as above; settings: source organism: Camelpox virus M-96
HLA-A*01:01 = experiment: as above; settings: source organism: Camelpox virus M-96
HLA-A*69:01 = experiment: as above; settings: source organism: Camelpox virus M-96
HLA-A*11:01 [6] = experiment: IEDB peptide-MHC binding, purified MHC/competitive/fluorescence; filed as Kd, often an IC50 or EC50 that approximates it; ≥ and ≤ were set here for values at or beyond the usual limits of such assays
HLA-A*02:03 [7] = experiment: as above; settings: source organism: Variola virus
HLA-A*33:01 = experiment: IEDB peptide-MHC binding, purified MHC/competitive/radioactivity; filed as Kd, often an IC50 or EC50 that approximates it; ≥ and ≤ were set here for values at or beyond the usual limits of such assays; settings: source organism: Vaccinia virus WR
HLA-A*68:01 = experiment: as above; settings: source organism: Vaccinia virus WR
HLA-B*15:01 [8] = experiment: IEDB peptide-MHC binding, purified MHC/competitive/fluorescence; filed as Kd, often an IC50 or EC50 that approximates it; ≥ and ≤ were set here for values at or beyond the usual limits of such assays; settings: source organism: Vaccinia virus WR
HLA-B*08:01 = experiment: as above
HLA-A*26:01 [9] = experiment: as above; settings: source organism: Cryptosporidium parvum Iowa II
HLA-B*46:01 [10] = experiment: as above; settings: source organism: Cryptosporidium parvum Iowa II
HLA-A*02:12 [11] = experiment: as above; settings: source organism: Cryptosporidium parvum Iowa II
HLA-A*02:19 [12] = experiment: as above; settings: source organism: Cryptosporidium parvum Iowa II
HLA-B*18:01 [13] = experiment: as above; settings: source organism: Cryptosporidium parvum Iowa II
HLA-A*03:01 [14] = experiment: as above; settings: source organism: Cryptosporidium parvum Iowa II
HLA-B*51:01 [15] = experiment: as above; settings: source organism: Cryptosporidium parvum Iowa II
HLA-B*39:01 = experiment: as above; settings: source organism: Cryptosporidium parvum Iowa II
HLA-B*27:03 [16] = experiment: as above; settings: source organism: Cryptosporidium parvum Iowa II
HLA-A*29:02 [17] = experiment: as above
HLA-B*15:01 [18] = experiment: IEDB peptide-MHC binding, purified MHC/competitive/fluorescence; ≥ and ≤ were set here for values at or beyond the usual limits of such assays
HLA-A*03:01 [19] = experiment: as above
HLA-A*02:01 [20] = experiment: as above
HLA-A*24:02 = experiment: as above
HLA-A*02:12 [21] = experiment: IEDB peptide-MHC binding, purified MHC/direct/fluorescence; filed as Kd, often an IC50 or EC50 that approximates it; ≥ and ≤ were set here for values at or beyond the usual limits of such assays; settings: source organism: Burkholderia mallei ATCC 23344
HLA-A*02:19 [22] = experiment: as above; settings: source organism: Burkholderia mallei ATCC 23344
HLA-B*18:01 [23] = experiment: as above; settings: source organism: Burkholderia mallei ATCC 23344
HLA-A*02:16 = experiment: as above; settings: source organism: Burkholderia mallei ATCC 23344
HLA-A*68:02 = experiment: as above; settings: source organism: Burkholderia mallei ATCC 23344
HLA-A*02:03 [24] = experiment: as above; settings: source organism: Burkholderia mallei ATCC 23344
HLA-B*51:01 [25] = experiment: as above; settings: source organism: Burkholderia mallei ATCC 23344
HLA-B*27:03 [26] = experiment: as above; settings: source organism: Burkholderia mallei ATCC 23344
HLA-A*29:02 [27] = experiment: as above; settings: source organism: Burkholderia mallei ATCC 23344
HLA-A*11:01 [28] = experiment: IEDB peptide-MHC binding, purified MHC/competitive/fluorescence; ≥ and ≤ were set here for values at or beyond the usual limits of such assays; settings: source organism: Sudan ebolavirus
HLA-C*14:02 = experiment: IEDB peptide-MHC binding, purified MHC/direct/fluorescence; filed as Kd, often an IC50 or EC50 that approximates it; ≥ and ≤ were set here for values at or beyond the usual limits of such assays; settings: source organism: Clostridium botulinum A str. ATCC 3502
HLA-C*15:02 = experiment: as above; settings: source organism: Clostridium botulinum A str. ATCC 3502
[29] = source organism: Camelpox virus M-96
[30] = source organism: Vaccinia virus WR
[31] = source organism: Zaire ebolavirus
[32] = source organism: Sudan ebolavirus
[33] = source organism: Burkholderia mallei ATCC 23344

## DILASIIDY
HLA-B*15:01 [1]; [29]
  Kd: ≥ 20 µM
HLA-A*26:01 [2]; [29]
  Kd: 0.361 µM
HLA-B*46:01 [3]; [29]
  Kd: ≥ 20 µM
HLA-A*31:01
  Kd: ≥ 20 µM
HLA-B*15:17; [29]
  Kd: 0.299 µM
HLA-A*03:01 [4]; [29]
  Kd: ≥ 20 µM
HLA-B*40:01
  Kd: ≥ 20 µM
HLA-B*27:05
  Kd: ≥ 20 µM
HLA-A*02:01 [5]; [29]
  Kd: ≥ 20 µM
HLA-B*48:01
  Kd: ≥ 20 µM
HLA-B*57:01; [29]
  Kd: ≥ 20 µM
HLA-B*58:01
  Kd: ≥ 20 µM
HLA-A*01:01
  Kd: ≥ 20 µM
HLA-A*69:01
  Kd: ≥ 20 µM
HLA-A*11:01 [6]; source organism: Variola virus
  Kd: ≥ 20 µM
HLA-A*02:03 [7]
  Kd: 1.85 µM

## EIKDRILSY
HLA-A*33:01
  Kd: ≥ 20.5 µM
HLA-A*68:01
  Kd: 0.116 µM
HLA-A*26:01 [2]; [29]
  Kd: 0.003 µM
HLA-A*31:01
  Kd: ≥ 20 µM
HLA-B*15:17; [29]
  Kd: 0.63 µM
HLA-A*03:01 [4]; [29]
  Kd: ≥ 20 µM
HLA-B*40:01
  Kd: ≥ 20 µM
HLA-B*27:05
  Kd: ≥ 20 µM
HLA-A*02:01 [5]; [29]
  Kd: ≥ 20 µM
HLA-B*48:01
  Kd: ≥ 20 µM
HLA-B*57:01; [29]
  Kd: ≥ 20 µM
HLA-B*58:01
  Kd: ≥ 20 µM
HLA-A*01:01
  Kd: ≥ 20 µM
HLA-A*69:01
  Kd: ≥ 20 µM
HLA-B*15:01 [8]
  Kd: 0.165 µM
HLA-B*08:01; [30]
  Kd: 2.02 µM
HLA-A*11:01 [6]; [30]
  Kd: ≥ 20 µM

## KIVPLPPMY
HLA-A*26:01 [9]
  Kd: ≥ 20 µM
HLA-B*46:01 [10]
  Kd: ≥ 20 µM
HLA-A*02:12 [11]
  Kd: ≥ 20 µM
HLA-A*02:19 [12]
  Kd: ≥ 20 µM
HLA-B*18:01 [13]
  Kd: ≥ 20 µM
HLA-A*03:01 [14]
  Kd: 0.796 µM
HLA-B*51:01 [15]
  Kd: ≥ 20 µM
HLA-B*39:01
  Kd: ≥ 20 µM
HLA-B*27:03 [16]
  Kd: ≥ 20 µM
HLA-A*29:02 [17]; source organism: Cryptosporidium parvum Iowa II
  Kd: 0.277 µM

## KLFLESGAV
HLA-B*15:01 [18]; [31]
  IC50: ≥ 81.3 µM
HLA-A*03:01 [19]; [31]
  IC50: ≥ 280 µM
HLA-A*02:01 [20]; [31]
  IC50: 1.76 µM
HLA-A*24:02; [31]
  IC50: ≥ 184 µM

## KLYLVDYGL
HLA-B*15:01 [18]; [30]
  IC50: 35.7 µM
HLA-A*03:01 [19]; [30]
  IC50: ≥ 130 µM
HLA-A*24:02; [30]
  IC50: 16.5 µM

## KQDRSDGYF
HLA-B*15:01 [18]; source organism: Vaccinia virus Copenhagen
  IC50: 60.3 µM

## LFKIDNNTF
HLA-B*15:01 [18]; [32]
  IC50: 14.4 µM
HLA-A*24:02; [32]
  IC50: 0.0253 µM

## LQVSDVDKL
HLA-B*15:01 [18]; [31]
  IC50: ≥ 75.8 µM
HLA-A*02:01 [20]; [31]
  IC50: 5.69 µM

## LYKSINVEY
HLA-B*15:01 [18]; [30]
  IC50: 7.65 µM
HLA-A*24:02; [30]
  IC50: 0.11 µM

## QARRMVQAM
HLA-B*08:01; source organism: Influenza A virus (A/Wellington/8/2004(H3N2))
  Kd: 0.0863 µM

## QHAWPLPPL
HLA-B*15:01 [1]; [33]
  Kd: ≥ 20 µM
HLA-A*26:01 [2]; [33]
  Kd: ≥ 20 µM
HLA-B*46:01 [3]; [33]
  Kd: ≥ 20 µM
HLA-A*02:12 [21]
  Kd: ≥ 20 µM
HLA-A*02:19 [22]
  Kd: ≥ 20 µM
HLA-B*18:01 [23]
  Kd: ≥ 20 µM
HLA-B*15:17; [33]
  Kd: ≥ 20 µM
HLA-A*03:01 [4]; [33]
  Kd: ≥ 20 µM
HLA-A*02:16
  Kd: ≥ 20 µM
HLA-A*68:02
  Kd: ≥ 20 µM
HLA-A*02:03 [24]
  Kd: ≥ 20 µM
HLA-A*02:01 [5]; [33]
  Kd: ≥ 20 µM
HLA-B*51:01 [25]
  Kd: ≥ 20 µM
HLA-B*27:03 [26]
  Kd: ≥ 20 µM
HLA-B*57:01; [33]
  Kd: ≥ 20 µM
HLA-A*29:02 [27]
  Kd: ≥ 20 µM

## QLNDTIHLH
HLA-B*15:01 [18]; [32]
  IC50: 53.1 µM
HLA-A*11:01 [28]
  IC50: 6.06 µM
HLA-A*03:01 [19]; [32]
  IC50: 50.4 µM
HLA-A*02:01 [20]; [32]
  IC50: 39.9 µM

## VIILFQRTF
HLA-B*15:01 [18]; [31]
  IC50: ≥ 85.9 µM
HLA-A*02:01 [20]; [31]
  IC50: ≥ 818 µM
HLA-A*24:02; [31]
  IC50: 0.0558 µM

## YMIGYTAYY
HLA-C*14:02
  Kd: ≤ 0.001 µM
HLA-C*15:02
  Kd: 4.02 µM
HLA-A*29:02 [17]; source organism: Clostridium botulinum A str. ATCC 3502
  Kd: ≤ 0.0001 µM
